Measurements: patent US20260374739A1, “SMALL MOLECULAR WEIGHT CHEMICAL COMPOUND TO ANTAGONIZE EPH-EPHRIN TETRAMERIZATION AND INHIBIT BIDIRECTIONAL SIGNALING” (THE BOARD OF REGENTS OF THE UNIVERSITY OF TEXAS SYSTEM, priority 2022, published 2026)
Where two headings read alike, the source gives them in different places.

B1: EphB1: soluble human EphB1-His ectodomain (protein, UniProt P54762 18-540, looked up)
extracellular domain: MEETLMDTRTATAELGWTANPASGWEEVSGYDENLNTIRTYQVCNVFEPNQNNWLLTTFINRRGAHRIYTEMRFTVRDCSSLPNVPGSCKETFNLYYYETDSVIATKKSAFWSEAPYLKVDTIAADESFSQVDFGGRLMKVNTEVRSFGPLTRNGFYLAFQDYGACMSLLSVRVFFKKCPSIVQNFAVFPETMTGAESTSLVIARGTCIPNAEEVDVPIKLYCNGDGEWMVPIGRCTCKPGYEPENSVACKACPAGTFKASQEAEGCSHCPSNSRSPAEASPICTCRTGYYRADFDPPEVACTSVPSGPRNVISIVNETSIILEWHPPRETGGRDDVTYNIICKKCRADRRSCSRCDDNVEFVPRQLGLTECRVSISSLWAHTPYTFDIQAINGVSSKSPFPPQHVSVNITTNQAAPSTVPIMHQVSATMRSITLSWPQPEQPNGIILDYEIRYYEKEHNEFNSSMARSQTNTARIDGLRPGMVYVVQVRARTVAGYGKFSGKMCFQTLTDDDYKSELREQLP
modifications: extracellular domain His tag
notes: soluble human EphB1-His ectodomain
B2: EphB2: soluble human EphB2-His ectodomain (protein, UniProt P29323 19-543, looked up)
extracellular domain: VEETLMDSTTATAELGWMVHPPSGWEEVSGYDENMNTIRTYQVCNVFESSQNNWLRTKFIRRRGAHRIHVEMKFSVRDCSSIPSVPGSCKETFNLYYYEADFDSATKTFPNWMENPWVKVDTIAADESFSQVDLGGRVMKINTEVRSFGPVSRSGFYLAFQDYGGCMSLIAVRVFYRKCPRIIQNGAIFQETLSGAESTSLVAARGSCIANAEEVDVPIKLYCNGDGEWLVPIGRCMCKAGFEAVENGTVCRGCPSGTFKANQGDEACTHCPINSRTTSEGATNCVCRNGYYRADLDPLDMPCTTIPSAPQAVISSVNETSLMLEWTPPRDSGGREDLVYNIICKSCGSGRGACTRCGDNVQYAPRQLGLTEPRIYISDLLAHTQYTFEIQAVNGVTDQSPFSPQFASVNITTNQAAPSAVSIMHQVSRTVDSITLSWSQPDQPNGVILDYELQYYEKELSEYNATAIKSPTNTVTVQGLKAGAIYVFQVRARTVAGYGRYSGKMYFQTMTEAEYQTSIQEKLPL
modifications: extracellular domain His tag
notes: soluble human EphB2-His ectodomain
B3: EphB4: soluble human EphB4-His ectodomain (protein, UniProt P54760 16-539, looked up)
extracellular domain: LEETLLNTKLETADLKWVTFPQVDGQWEELSGLDEEQHSVRTYEVCDVQRAPGQAHWLRTGWVPRRGAVHVYATLRFTMLECLSLPRAGRSCKETFTVFYYESDADTATALTPAWMENPYIKVDTVAAEHLTRKRPGAEATGKVNVKTLRLGPLSKAGFYLAFQDQGACMALLSLHLFYKKCAQLTVNLTRFPETVPRELVVPVAGSCVVDAVPAPGPSPSLYCREDGQWAEQPVTGCSCAPGFEAAEGNTKCRACAQGTFKPLSGEGSCQPCPANSHSNTIGSAVCQCRVGYFRARTDPRGAPCTTPPSAPRSVVSRLNGSSLHLEWSAPLESGGREDLTYALRCRECRPGGSCAPCGGDLTFDPGPRDLVEPWVVVRGLRPDFTYTFEVTALNGVSSLATGPVPFEPVNVTTDREVPPAVSDIRVTRSSPSSLSLAWAVPRAPSGAVLDYEVKYHEKGAEGPSSVRFLKTSENRAELRGLKRGASYLVQVRARSEAGYGPFGQEHHSQTQLDESEGWREQLA
modifications: extracellular domain His tag
notes: soluble human EphB4-His ectodomain

Legend:
human EphrinB3 = assay: Octet binding kinetics, EphB to immobilized human EphrinB3; conditions: for Kd: 2:1 fit
Procedure: (§1) Studies were conducted to confirm that A20 chemicals can effectively target the human Eph/Ephrin proteins. Octet system was used to first characterize the biophysical interactions of the human B class Eph and Ephrin proteins, and then was tested to assess how A20 may disrupt the interactions. Since the human and rodent proteins are highly conserved, and essentially identical, with EphB2 sharing 99.5% identity between human and mouse, with only 5 of ~1,000 amino acids different, any species-specific differences were not anticipated. Therefore, commercially available human EphrinB1-Fc (EB1), EphrinB2-Fc (EB2), and EphrinB3-Fc (EB3) ectodomain proteins were sparsely immobilized onto biosensors and then exposed to 50 nM of soluble human EphB1-His, EphB2-His, and EphB4-His ectodomains for 800 sec association and 1,000 sec dissociation steps with a total of nine different interactions analyzed. In the absence of A20 chemical, the immobilized human EphrinB proteins bound to their appropriate human EphB target proteins; with EphrinB1 only bound EphB1 and EphB2, EphrinB2 bound all three EphB1, EphB2, and EphB4, and EphrinB3 only bound EphB1 and EphB2 (FIG. 19A-19B).
(§2) While the binding kinetics described above for the various human EphB-EphrinB interactions are complicated and show clear differences, all are extremely high affinity interactions with KD values in the low nanomolar to picomolar range (Table 2). Octet software allows for detailed biophysical analysis of the sensorgram data and first attempts to fit the information to equations that follow rather standard binding characteristics, most typified by either a classic 1:1 binding type interaction (like formation of a simple receptor-ligand dimer) or something more complex/heterologous involving 2:1 binding type interactions (like Eph-Ephrin dimer and tetramer). Based on the information contained in the sensorgram run under analysis, the Octet software will attempt to draw curves to fit the data to 1:1 and 2:1 binding equations. […] The resulting curve fits are not always perfect, especially for such complex interactions as the Eph/Ephrin system. As such, while the EphB2-EB2 and EphB4-EB2 data fit a 2:1 curve fairly well, the EphB1-EB2 interaction fits neither 1:1 or 2:1 well and the R2 values of this interaction reflects this. The interaction of EB1 with its two target proteins is more divergent. […] The EphB1-EB3 and EphB2-EB3 interactions are like that for EphB1-EB1, clear 1:1 curve fits with a slow gradual on rate of association followed by no off rate in dissociation.

human EphrinB2 = assay: Octet binding kinetics, EphB to immobilized human EphrinB2
Procedure: as §1, §2

human EphrinB1 = assay: Octet binding kinetics, EphB to immobilized human EphrinB1
Procedure: as §1, §2

[1] = in parentheses R2 value, read-out: KD2
[2] = 2:1 fit, in parentheses R2 value, read-out: KD2
[3] = in parentheses R2 value, read-out: KD

Molecule	Kd (human EphrinB3; [1]) [nM]	Kd (human EphrinB3; read-out: KD1) [nM]	Kd (human EphrinB2; [2]) [nM]	Kd (human EphrinB2; 2:1 fit, read-out: KD1) [nM]	Kd (human EphrinB2; [3]) [nM]	Kd (human EphrinB1; [2]) [nM]	Kd (human EphrinB1; 2:1 fit, read-out: KD1) [nM]	Kd (human EphrinB1; [3]) [nM]	KD (binding in words) (human EphrinB3)	KD (binding in words) (human EphrinB1)
B1	0.0012	0.0014	27	< 0.001	4.3	–	–	–	–	–
B2	0.0018	0.0018	16.8	5.9	4.84	40	41	8.57	–	–
B3	–	–	42	0.35	1.8	–	–	–	no binding	no binding
